Data on 11 sequences can be found in patent US10106582B2, “Complex-formation-modulating agents and uses therefor” (Factor Therapeutics Limited, priority 2012, dated 2018).

Test [1] deals with T1, IGF-II (Homo sapiens, UniProt P01344).
T1 construct: purchased GroPep
Briefly: VN-peptide array: binding of IGF-II to immobilized overlapping 16-mer VN peptides. The settings on record: relative spot intensity on VN-peptide array after IGF-II incubation, vs average intensity of negative controls (TotalLab). The source says:
(§1) The inventors designed small-molecule VN-peptides that could potentially disrupt the formation of the IGF-I:IGFBP:VN trimeric or the IGF-II:VN dimeric complexes by binding to the IGFBPs and/or IGF-II and preventing their association with VN within the complex. To design peptides, the binding sites of IGFBP-3/-5 and IGF-II on VN were first determined using VN-peptide arrays. The entire VN protein sequence, excluding the signal peptide (residues 1-19), was divided into overlapping 16-mer peptides with 3AA frameshift/offset (for peptide sequences refer to Table 6) and immobilized onto cellulose membranes (peptide spotting was outsourced to PepMetric Technologies Inc). For a schematic of the arrangement of VN peptides and controls refer to FIG. 2. The resultant peptide arrays were incubated either with IGFBP-3, IGFBP-5 or IGF-II ligands, probed with the respective antibodies, the membranes developed using ECL, and imaged using the ChemiDoc™ XRS system (BioRad). The spots on the membrane were analysed using TotalLab array quantification software (TotalLab Ltd, Newcastle, England) identifying positive peptide spots by comparing each spot to the combined intensities of the negative controls.
(§2) The entire VN protein sequence, excluding the signal peptide (residues 1-19), was divided into overlapping 16-mer peptides with 3 amino acid (AA) frameshift/offset. This yielded 148 overlapping peptides covering the entire VN sequence (residues 20-478) (Table 6) with a resolution of 3 AA. Peptide synthesis and spotting onto a cellulose membrane were outsourced to PepMetric Technologies Inc. (Richmond, BC, Canada). For a diagrammatic illustration of the strategy used to divide an example amino acid sequence into peptides and to spot them onto the membrane, please refer to http://www.pepmetric.com/html/Pep-Overlap.html. The VN-overlapping peptides were generated using FMOC (9-fluorenylmethoxycarbonyl) Solid-Phase SPOT synthesis onto PEG-grafted amine-functionalized cellulose membrane (Whatman® 540 filter paper). The peptides were spotted onto the cellulose membrane in a 10×16 grid with each peptide being 10˜50 nM in concentration with >70% purity. Finally, these membranes were acetylated in order to cap the free ends of the spotted peptides preventing them from degradation during shipping and storage.
(§3) Along with the VN-peptides these membranes were also spotted with a positive control (i.e., universal binding peptides tested by the manufacturer to be positive for antibodies from goat, mouse, rat and chicken) and a negative control (ie. non-binding peptides as well as BSA) controls. For a schematic of the arrangement of VN-peptides and controls refer to FIG. 2 and for the sequence of each peptide corresponding to the grid number refer to Table 6. Four such replicate membranes were prepared and stored at room temperature in a clip sealed plastic bag. Long-term storage was at −20° C.
(§4) Methanol or ethanol was used to enhance the rehydration of peptide spots that might be hydrophobic. The peptides spotted onto the membranes were activated by incubating in 3 mL of 70% ethanol for five mins. The membranes were subsequently washed three times, 10 minutes each, in 10 mL TBS (Tris Buffered Saline; 8 g NaCl, 0.2 g KCl and 6.1 g Tris Base into 1000 mL of milliQ water, pH 7) with gentle rocking. Membrane blocking was performed by incubating in 10 mL casein-based membrane blocking buffer (MBS; Sigma-Aldrich) overnight at 4° C. The following day, the membranes were washed twice, 10 minutes each, in 10 mL TBS-T (TBS+0.05% Tween-20; pH 7).
(§5) Ligands used to test binding to VN-peptides were IGFBP-3, IGFBP-5 and IGF-II. For ligand binding, four separate solutions of 1 μg/mL ligand in 10 mL MBS buffer were prepared and each membrane was incubated in one of the four ligand solutions overnight at 4° C., with gentle rocking. […] The following day, the membranes were washed three times, 10 minutes each, in 10 mL TBS-T. […]

For test [2], the target named is T2, IGFBP-3 (Homo sapiens, UniProt P17936).
T2 construct: purchased GroPep
As to the kind of experiment: VN-peptide array: binding of IGFBP-3 to immobilized overlapping 16-mer VN peptides. As to conditions: relative spot intensity on VN-peptide array after IGFBP-3 incubation, vs average intensity of negative controls (TotalLab).
Description: as §1, §2, §3, §4, §5

Where no end group is shown, it is not given here.

T2 sequence (P17936 28-291): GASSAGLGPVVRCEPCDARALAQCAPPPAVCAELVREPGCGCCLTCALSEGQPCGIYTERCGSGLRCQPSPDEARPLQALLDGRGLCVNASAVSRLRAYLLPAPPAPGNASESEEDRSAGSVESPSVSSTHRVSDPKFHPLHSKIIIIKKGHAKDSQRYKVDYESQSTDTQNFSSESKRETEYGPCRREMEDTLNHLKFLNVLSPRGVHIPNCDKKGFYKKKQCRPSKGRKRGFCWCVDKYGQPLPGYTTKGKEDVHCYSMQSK
T1 sequence (P01344 25-91 limits assumed): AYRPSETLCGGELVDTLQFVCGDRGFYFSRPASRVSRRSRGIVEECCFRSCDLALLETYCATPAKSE

As for “DELCSYYQSCCTDYTA (not fully specified (N-terminus); cysteine pairing not given here) [Peptide 1B]”, the “Intensity (against −ve control), IGFII” value in test [1] is 12-IGFII fold-change.
Regarding “DSWEDIFELLFWGRTS (not fully specified (N-terminus)) [Peptide 5D]”, the “Intensity (against −ve control), BP3” value in test [2] was 2.5-BP3 fold-change.
Consider “FAMMQRDSWEDIFELL (not fully specified (N-terminus)) [Peptide 5B]”, for which, in test [2], the “Intensity (against −ve control), BP3” value is recorded as 4.5-BP3 fold-change.
For “FEHFAMMQRDSWEDIF (not fully specified (N-terminus)) [Peptide 5A]”, the “Intensity (against −ve control), BP3” value in test [2] was 1.5-BP3 fold-change.
On to “KGKQYWEYQFQHQPSQ (not fully specified (N-terminus)) [Peptide 4A]”, for which the “Intensity (against −ve control), BP3” value in test [2] is 6-BP3 fold-change.
In the case of “LFSSEESNLGANNYDD (not fully specified (N-terminus)) [Peptide 7A]”, in test [1], the “Intensity (against −ve control), IGFII” value was 17-IGF-II fold-change.
Consider “MQRDSWEDIFELLFWG (not fully specified (N-terminus)) [Peptide 5C]”, for which, in test [2], the “Intensity (against −ve control), BP3” value is given as 4.5-BP3 fold-change.
As to “QYWEYQFQHQPSQEEC (not fully specified (N-terminus)) [Peptide 4B]”, the “Intensity (against −ve control), BP3” value in test [2] is reported as 12-BP3 fold-change.
Regarding “SEESNLGANNYDDYRM (not fully specified (N-terminus)) [Peptide 7B]”, the “Intensity (against −ve control), IGFII” value in test [1] was 18-IGF-II fold-change.
As to “SNLGANNYDDYRMDWL (not fully specified (N-terminus)) [Peptide 7C]”, the “Intensity (against −ve control), IGFII” value in test [1] is 12-IGF-II fold-change.
“TRQPQFISRDWHGVPG (not fully specified (N-terminus)) [Peptide 6C]”: the “Intensity (against −ve control), IGFII” value in test [1] is 1.5-IGFII fold-change.
